Data on 1 substance can be found in paper PMC12314576, “The Actin‐Binding Prolyl‐Isomerase Par17 Sustains Its Substrate Selectivity by Interdomain Allostery” (Proteins, 2025).

In the data set the test system is T1, C[C@H](NC(=O)CCC(=O)O)C(=O)N[C@@H](CCCCN)C(=O)N1CCC[C@H]1C(=O)N[C@@H](Cc1ccccc1)C(=O)Nc1ccc([N+](=O)[O-])cc1.
T1 construct: GST-His6 (PreScission site) (N, cleaved yes); made in house; host or cells: E. coli BL21 (DE3) T1r
Description: Protease-coupled isomerase assay (PPIase assay) with the catalytic domain. Type of data set: biochemical, human. As to conditions: other: as quoted in running text; pH 6.8; 10.0 °C. On the procedure:
To determine the catalytic efficiency and substrate specificity of Par14 and Par17, we performed a protease‐coupled assay. In this assay, the trans form of a para‐nitroaniline (pNA) tagged model substrate is cleaved by chymotrypsin, and the resulting change in absorption at 390 nm due to free pNA is measured. When the model substrate is added to the protease‐containing buffer, all trans‐Xaa‐Pro isomers are immediately cleaved by chymotrypsin. Therefore, the extent of the first signal burst observed in the absorption spectrum correlates with the amount of trans isomers of the model substrate formed during the experimental dead time. […] The newly formed trans‐Xaa substrates are immediately cleaved, and isomerization can thus be monitored over time (Figure 2). Eighteen different substrate peptides with varying amino acids at the Xaa position (Suc‐Ala‐Xaa‐Pro‐Phe‐pNa) were measured to determine the isomerase activity and substrate selectivity of Par14 (Par17Δ1–25), Par17, and the catalytic domain (Par17Δ1–60) (Table S1). […]
We determined the isomerase activity using the PPIase assay described by. […] A baseline was recorded for 5 min (Cary 100Bio UV/Vis spectrophotometer, Varian/Agilent, Santa Clara, US, λ: 390 nm, bandwidth: 1.0 nm, average time between measurements: 0.5 s, temperature: 10°C). […] The solution was mixed by inverting the cuvette three times and the reaction was recorded for 15 min. […]

Chain of PPIase domain (Par17Δ1-60) (Homo sapiens) (chain, as listed by the source mutant): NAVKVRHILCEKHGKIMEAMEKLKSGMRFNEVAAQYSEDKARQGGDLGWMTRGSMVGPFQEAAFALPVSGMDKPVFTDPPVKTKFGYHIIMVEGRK

“PPIase domain (Par17Δ1-60) (Homo sapiens)”: the kcat/Km – broadly, the turnover number divided by the Michaelis constant – was found to be 3700 M⁻¹ s⁻¹.
